Data taken from PMC3416963.

B1: LigI (Sphingobium sp. SYK-6; H178A) (protein)
chain: TNDERILSWNETPSKPRYTPPPGAIDAHCHVFGPMAQFPFSPKAKYLPRDAGPDMLFALRDHLGFARNVIVQASCHGTDNAATLDAIARAQGKARGIAVVDPAIDEAELAALHEGGMRGIRFNFLKRLVDDAPKDKFLEVAGRLPAGWHVVIYFEADILEELRPFMDAIPVPIVIDAMGRPDVRQGPDGADMKAFRRLLDSREDIWFKATCPDRLDPAGPPWDDFARSVAPLVADYADRVIWGTDWPHPNMQDAIPDDGLVVDMIPRIAPTPELQHKMLVTNPMRLYWSEEM
B2: LigI (Sphingobium sp. SYK-6; Y47F) (protein)
chain: TNDERILSWNETPSKPRYTPPPGAIDAHCHVFGPMAQFPFSPKAKFLPRDAGPDMLFALRDHLGFARNVIVQASCHGTDNAATLDAIARAQGKARGIAVVDPAIDEAELAALHEGGMRGIRFNFLKRLVDDAPKDKFLEVAGRLPAGWHVVIYFEADILEELRPFMDAIPVPIVIDHMGRPDVRQGPDGADMKAFRRLLDSREDIWFKATCPDRLDPAGPPWDDFARSVAPLVADYADRVIWGTDWPHPNMQDAIPDDGLVVDMIPRIAPTPELQHKMLVTNPMRLYWSEEM
B3: LigI (Sphingobium sp. SYK-6; R122M) (protein)
chain: TNDERILSWNETPSKPRYTPPPGAIDAHCHVFGPMAQFPFSPKAKYLPRDAGPDMLFALRDHLGFARNVIVQASCHGTDNAATLDAIARAQGKARGIAVVDPAIDEAELAALHEGGMRGIMFNFLKRLVDDAPKDKFLEVAGRLPAGWHVVIYFEADILEELRPFMDAIPVPIVIDHMGRPDVRQGPDGADMKAFRRLLDSREDIWFKATCPDRLDPAGPPWDDFARSVAPLVADYADRVIWGTDWPHPNMQDAIPDDGLVVDMIPRIAPTPELQHKMLVTNPMRLYWSEEM
B4: LigI (Sphingobium sp. SYK-6; Y154F) (protein)
chain: TNDERILSWNETPSKPRYTPPPGAIDAHCHVFGPMAQFPFSPKAKYLPRDAGPDMLFALRDHLGFARNVIVQASCHGTDNAATLDAIARAQGKARGIAVVDPAIDEAELAALHEGGMRGIRFNFLKRLVDDAPKDKFLEVAGRLPAGWHVVIFFEADILEELRPFMDAIPVPIVIDHMGRPDVRQGPDGADMKAFRRLLDSREDIWFKATCPDRLDPAGPPWDDFARSVAPLVADYADRVIWGTDWPHPNMQDAIPDDGLVVDMIPRIAPTPELQHKMLVTNPMRLYWSEEM
B5: LigI (Sphingobium sp. SYK-6; H31N) (protein)
chain: TNDERILSWNETPSKPRYTPPPGAIDAHCNVFGPMAQFPFSPKAKYLPRDAGPDMLFALRDHLGFARNVIVQASCHGTDNAATLDAIARAQGKARGIAVVDPAIDEAELAALHEGGMRGIRFNFLKRLVDDAPKDKFLEVAGRLPAGWHVVIYFEADILEELRPFMDAIPVPIVIDHMGRPDVRQGPDGADMKAFRRLLDSREDIWFKATCPDRLDPAGPPWDDFARSVAPLVADYADRVIWGTDWPHPNMQDAIPDDGLVVDMIPRIAPTPELQHKMLVTNPMRLYWSEEM
B6: LigI (Sphingobium sp. SYK-6; R128M) (protein)
chain: TNDERILSWNETPSKPRYTPPPGAIDAHCHVFGPMAQFPFSPKAKYLPRDAGPDMLFALRDHLGFARNVIVQASCHGTDNAATLDAIARAQGKARGIAVVDPAIDEAELAALHEGGMRGIRFNFLKMLVDDAPKDKFLEVAGRLPAGWHVVIYFEADILEELRPFMDAIPVPIVIDHMGRPDVRQGPDGADMKAFRRLLDSREDIWFKATCPDRLDPAGPPWDDFARSVAPLVADYADRVIWGTDWPHPNMQDAIPDDGLVVDMIPRIAPTPELQHKMLVTNPMRLYWSEEM
B7: LigI (Sphingobium sp. SYK-6; H178C) (protein)
chain: TNDERILSWNETPSKPRYTPPPGAIDAHCHVFGPMAQFPFSPKAKYLPRDAGPDMLFALRDHLGFARNVIVQASCHGTDNAATLDAIARAQGKARGIAVVDPAIDEAELAALHEGGMRGIRFNFLKRLVDDAPKDKFLEVAGRLPAGWHVVIYFEADILEELRPFMDAIPVPIVIDCMGRPDVRQGPDGADMKAFRRLLDSREDIWFKATCPDRLDPAGPPWDDFARSVAPLVADYADRVIWGTDWPHPNMQDAIPDDGLVVDMIPRIAPTPELQHKMLVTNPMRLYWSEEM
B8: LigI (Sphingobium sp. SYK-6; D246N) (protein)
chain: TNDERILSWNETPSKPRYTPPPGAIDAHCHVFGPMAQFPFSPKAKYLPRDAGPDMLFALRDHLGFARNVIVQASCHGTDNAATLDAIARAQGKARGIAVVDPAIDEAELAALHEGGMRGIRFNFLKRLVDDAPKDKFLEVAGRLPAGWHVVIYFEADILEELRPFMDAIPVPIVIDHMGRPDVRQGPDGADMKAFRRLLDSREDIWFKATCPDRLDPAGPPWDDFARSVAPLVADYADRVIWGTNWPHPNMQDAIPDDGLVVDMIPRIAPTPELQHKMLVTNPMRLYWSEEM
B9: LigI (Sphingobium sp. SYK-6; H29N) (protein)
chain: TNDERILSWNETPSKPRYTPPPGAIDANCHVFGPMAQFPFSPKAKYLPRDAGPDMLFALRDHLGFARNVIVQASCHGTDNAATLDAIARAQGKARGIAVVDPAIDEAELAALHEGGMRGIRFNFLKRLVDDAPKDKFLEVAGRLPAGWHVVIYFEADILEELRPFMDAIPVPIVIDHMGRPDVRQGPDGADMKAFRRLLDSREDIWFKATCPDRLDPAGPPWDDFARSVAPLVADYADRVIWGTDWPHPNMQDAIPDDGLVVDMIPRIAPTPELQHKMLVTNPMRLYWSEEM

Each protein was assayed on O=C(O)c1cc(C(=O)O)oc(=O)c1 (assay: purified protein). Conditions: 50 mM BICINE pH 8.25, 30 °C.
Assay type: biochemical, Sphingobium sp. SYK-6

Point of comparison: B1, Km 214 ± 44 µM. Against it:
- B2 — within error, 217 ± 41 µM
- B3 — 2.4-fold lower, 90 ± 15 µM
- B4 — within error, 238 ± 19 µM
- B5 — 2.4-fold lower, 89 ± 20 µM
- B6 — 2.2-fold higher, 465 ± 104 µM
- B7 — 5.2-fold lower, 41 ± 7 µM
- B8 — 3.2-fold lower, 66 ± 13 µM
- B9 — 3.4-fold higher, 720 ± 122 µM

Point of comparison: B7, kcat 32 ± 4 s⁻¹. Against it:
- B1 — 4-fold lower, 8 ± 0.9 s⁻¹
- B2 — within error, 26 ± 2 s⁻¹
- B3 — 1600-fold lower, 0.02 ± 0.001 s⁻¹
- B4 — 3.7-fold lower, 8.7 ± 0.3 s⁻¹
- B5 — 8.9-fold lower, 3.6 ± 0.3 s⁻¹
- B6 — 6.4-fold lower, 5 ± 0.4 s⁻¹
- B8 — 1400-fold lower, 0.023 ± 0.001 s⁻¹
- B9 — 80-fold lower, 0.4 ± 0.04 s⁻¹

Point of comparison: B9, kcat/Km 500 ± 37 M⁻¹ s⁻¹. Against it:
- B1 — 74-fold higher, 37000 ± 4000 M⁻¹ s⁻¹
- B2 — 240-fold higher, 120000 ± 2000 M⁻¹ s⁻¹
- B3 — 2.5-fold lower, 200 ± 22 M⁻¹ s⁻¹
- B4 — 74-fold higher, 37000 ± 200 M⁻¹ s⁻¹
- B5 — 82-fold higher, 41000 ± 6000 M⁻¹ s⁻¹
- B6 — 22-fold higher, 11000 ± 7000 M⁻¹ s⁻¹
- B7 — 1600-fold higher, 780000 ± 50000 M⁻¹ s⁻¹
- B8 — 2.5-fold lower, 200 ± 34 M⁻¹ s⁻¹
